B1: BBSome complex member BBS2 (Homo sapiens), Q9BXC9 (parent)
chain: MLLPVFTLKLRHKISPRMVAIGRYDGTHPCLAAATQTGKVFIHNPHTRNQHVSASRVFQSPLESDVSLLSINQAVSCLTAGVLNPELGYDALLVGTQTNLLAYDVYNNSDLFYREVADGANAIVLGTLGDISSPLAIIGGNCALQGFNHEGSDLFWTVTGDNVNSLALCDFDGDGKKELLVGSEDFDIRVFKEDEIVAEMTETEIVTSLCPMYGSRFGYALSNGTVGVYDKTSRYWRIKSKNHAMSIHAFDLNSDGVNELITGWSNGKVDARSDRTGEVIFKDNFSSAIAGVVEGDYRMDGHIQLICCSVDGEIRGYLPGTAEMRGNLMDTSAEQDLIRELSQKKQNLLLELRNYEENAKAELASPLNEADGHRGIIPANTRLHTTLSVSLGNETQTAHTELRISTSNDTIIRAVLIFAEGIFTGESHVVHPSIHNLSSSICIPIVPPKDVPVDLHLKAFVGYRSSTQFHVFESTRQLPRFSMYALTSLDPASEPISYVNFTIAERAQRVVVWLGQNFLLPEDTHIQNAPFQVCFTSLRNGGHLHIKIKLSGEITINTDDIDLAGDIIQSMASFFAIEDLQVEADFPVYFEELRKVLVKVDEYHSVHQKLSADMADHSNLIRSLLVGAEDARLMRDMKTMKSRYMELYDLNRDLLNGYKIRCNNHTELLGNLKAVNQAIQRAGRLRVGKPKNQVITACRDAIRSNNINTLFKIMRVGTASS
partner: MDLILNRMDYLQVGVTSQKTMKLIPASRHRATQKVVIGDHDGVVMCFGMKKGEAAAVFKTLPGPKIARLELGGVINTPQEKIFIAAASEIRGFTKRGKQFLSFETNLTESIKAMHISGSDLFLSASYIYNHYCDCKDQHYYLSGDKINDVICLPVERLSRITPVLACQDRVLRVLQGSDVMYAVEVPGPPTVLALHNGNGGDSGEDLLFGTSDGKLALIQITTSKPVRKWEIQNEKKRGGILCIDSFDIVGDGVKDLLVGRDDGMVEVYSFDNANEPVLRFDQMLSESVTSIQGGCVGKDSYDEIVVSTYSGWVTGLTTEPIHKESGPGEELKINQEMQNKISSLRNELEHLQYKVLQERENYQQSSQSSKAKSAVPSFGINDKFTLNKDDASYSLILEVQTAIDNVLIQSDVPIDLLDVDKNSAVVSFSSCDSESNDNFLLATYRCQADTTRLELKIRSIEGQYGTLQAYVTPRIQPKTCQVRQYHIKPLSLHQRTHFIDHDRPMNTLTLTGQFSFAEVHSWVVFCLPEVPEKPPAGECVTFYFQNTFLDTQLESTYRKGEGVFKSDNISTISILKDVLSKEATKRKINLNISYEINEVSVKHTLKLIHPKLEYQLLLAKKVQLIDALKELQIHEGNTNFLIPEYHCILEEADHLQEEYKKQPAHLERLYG

Variants of: B1
Settings: with BBS7, Q8IWZ6-2

Variant	effect of a mutation on the interaction
A485E	with no effect
A485K	with no effect
A485S	disrupting interaction strength
R476E	with no effect
R476K	with no effect
R476A	with no effect
T487P	disrupting interaction strength
T487E	with no effect
T487K	with no effect
T487R	disrupting interaction strength
T487A	with no effect
Q477A	with no effect
Q477E	with no effect
Q477K	with no effect
M483E	with no effect
M483K	disrupting interaction strength
M483A	with no effect
Y484K	with no effect
Y484A	disrupting interaction strength
Y484S	disrupting interaction strength
Y484Q	disrupting interaction strength
Y484E	with no effect
F481K	disrupting interaction strength
F481A	with no effect
F481E	disrupting interaction strength

Variant	effect of a mutation on the interaction
S482A	with no effect
S482K	with no effect
S482E	disrupting interaction strength
P479A	disrupting interaction strength
P479E	disrupting interaction strength
P479K	with no effect
T475K	with no effect
S488E	with no effect
S488R	disrupting interaction strength
S488K	with no effect
S488A	with no effect
D490A	with no effect
L486A	with no effect
L486K	with no effect
L486E	with no effect
L478E	with no effect
L478A	disrupting interaction strength
L478K	disrupting interaction strength
L489A	with no effect
L489E	with no effect
L489K	with no effect
R480K	with no effect
R480E	with no effect
R480A	with no effect

Next, values leading:

effect of a mutation on the interaction	Variant
with no effect	A492K
with no effect	A492E
with no effect	Y498A
with no effect	Y498E
with no effect	Y498K
with no effect	F501A
disrupting interaction strength	F501E
disrupting interaction strength	F501K
with no effect	P495E
with no effect	P495A
with no effect	P495K
with no effect	I496A
with no effect	I496K
with no effect	I496E
with no effect	N500A
with no effect	N500E
with no effect	N500K
with no effect	E494K

effect of a mutation on the interaction	Variant
with no effect	E494A
with no effect	P491E
with no effect	P491A
with no effect	P491K
with no effect	D490E
with no effect	D490K
disrupting interaction strength	V499K
disrupting interaction strength	V499R
with no effect	V499A
disrupting interaction strength	V499E
with no effect	S493A
with no effect	S493E
with no effect	S493K
disrupting interaction strength	S493N
with no effect	S497E
with no effect	S497A
with no effect	S497K

— IntAct's records for PubMed 29039417
